In experiment [1] the target is C10-DDB1M381/2. The experiment can be described thus: tripartite Nanoluc system (luciferase complementation). Particulars: HepG2 cells; co-transfected with a plasmid expressing Nano1-7; luciferase activity measured 48 h post-transfection; parent: 100%.
Experiment [2] has as its target C10-STAU1 with the RBD2 domain deleted (UniProt O95793). The experiment can be described thus: split reporter (BiFC, NanoBiT); tripartite Nanoluc luciferase: C10-tagged and N8-tagged proteins co-transfected with a plasmid expressing Nano1-7 into HepG2 cells; luciferase activity measured 48 h post-transfection.
Experiment [3] concerns the target N8-HBx (UniProt P03165). The experiment can be described thus: tripartite Nanoluc system (luciferase complementation). Particulars: HepG2 cells; co-transfected with a plasmid expressing Nano1-7; luciferase activity measured 48 h post-transfection; parent: 100%.
Experiment [4] addresses C10-DDB1 (UniProt Q16531). The experiment is described as above. Particulars: HepG2 cells; co-transfected with a plasmid expressing Nano1-7; luciferase activity measured 48 h post-transfection; parent: 100%.

Chain of C10-DDB1 (Q16531 whole entry): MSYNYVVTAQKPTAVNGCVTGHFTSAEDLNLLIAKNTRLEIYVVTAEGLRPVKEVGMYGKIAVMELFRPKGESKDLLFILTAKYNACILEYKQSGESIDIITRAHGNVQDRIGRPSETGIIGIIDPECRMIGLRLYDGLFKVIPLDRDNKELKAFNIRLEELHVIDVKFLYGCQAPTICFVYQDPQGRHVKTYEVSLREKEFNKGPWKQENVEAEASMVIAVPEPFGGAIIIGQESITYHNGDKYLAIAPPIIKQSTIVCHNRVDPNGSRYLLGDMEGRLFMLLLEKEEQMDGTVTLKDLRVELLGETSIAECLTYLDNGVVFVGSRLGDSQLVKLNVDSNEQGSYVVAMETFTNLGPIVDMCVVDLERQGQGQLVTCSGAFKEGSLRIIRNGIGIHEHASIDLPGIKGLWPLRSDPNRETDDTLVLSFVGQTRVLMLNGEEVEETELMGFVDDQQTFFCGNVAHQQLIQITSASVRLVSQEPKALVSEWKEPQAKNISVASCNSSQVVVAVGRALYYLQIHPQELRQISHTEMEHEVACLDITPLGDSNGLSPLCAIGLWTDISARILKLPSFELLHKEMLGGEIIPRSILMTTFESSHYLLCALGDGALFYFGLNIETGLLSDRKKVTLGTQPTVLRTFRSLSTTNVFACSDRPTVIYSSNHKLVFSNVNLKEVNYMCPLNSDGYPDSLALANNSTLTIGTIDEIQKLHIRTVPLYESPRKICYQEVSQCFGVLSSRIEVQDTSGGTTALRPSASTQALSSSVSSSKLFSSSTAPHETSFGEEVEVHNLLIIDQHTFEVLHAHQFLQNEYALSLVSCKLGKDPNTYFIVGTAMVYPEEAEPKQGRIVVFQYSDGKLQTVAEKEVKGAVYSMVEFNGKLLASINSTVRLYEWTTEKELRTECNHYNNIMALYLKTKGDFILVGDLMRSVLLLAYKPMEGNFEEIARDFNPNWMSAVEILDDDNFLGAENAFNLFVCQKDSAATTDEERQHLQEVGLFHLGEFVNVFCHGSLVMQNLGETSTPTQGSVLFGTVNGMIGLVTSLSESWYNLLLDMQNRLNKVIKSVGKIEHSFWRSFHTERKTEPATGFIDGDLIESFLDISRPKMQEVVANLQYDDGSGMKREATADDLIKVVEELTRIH

On to m3; m4 HBx:96E; DDB1:M381/2, for which the percent of parent in experiment [1] came to 0.2%. For the substance “N8-HBx (from UniProt P03165 1-154) (natural protein)”, the fold luminescence against wild type STAU1 in experiment [2] came to 2 fold. C10-DDB1 (from UniProt Q16531) M381/2: the percent of parent in experiment [3] is 0.68%. For N8-HBx (from UniProt P03165) 96E, the percent of parent in experiment [4] is 0.25%.

Values taken from paper PMC9156947.
